B1: Nuclear pore complex protein Nup85 (Homo sapiens), Q9BW27 (parent)
chain: MEELDGEPTVTLIPGVNSKKNQMYFDWGPGEMLVCETSFNKKEKSEMVPSCPFIYIIRKDVDVYSQILRKLFNESHGIFLGLQRIDEELTGKSRKSQLVRVSKNYRSVIRACMEEMHQVAIAAKDPANGRQFSSQVSILSAMELIWNLCEILFIEVAPAGPLLLHLLDWVRLHVCEVDSLSADVLGSENPSKHDSFWNLVTILVLQGRLDEARQMLSKEADASPASAGICRIMGDLMRTMPILSPGNTQTLTELELKWQHWHEECERYLQDSTFATSPHLESLLKIMLGDEAALLEQKELLSNWYHFLVTRLLYSNPTVKPIDLHYYAQSSLDLFLGGESSPEPLDNILLAAFEFDIHQVIKECSIALSNWWFVAHLTDLLDHCKLLQSHNLYFGSNMREFLLLEYASGLFAHPSLWQLGVDYFDYCPELGRVSLELHIERIPLNTEQKALKVLRICEQRQMTEQVRSICKILAMKAVRNNRLGSALSWSIRAKDAAFATLVSDRFLRDYCERGCFSDLDLIDNLGPAMMLSDRLTFLGKYREFHRMYGEKRFADAASLLLSLMTSRIAPRSFWMTLLTDALPLLEQKQVIFSAEQTYELMRCLEDLTSRRPVHGESDTEQLQDDDIETTKVEMLRLSLARNLARAIIREGSLEGS
partner: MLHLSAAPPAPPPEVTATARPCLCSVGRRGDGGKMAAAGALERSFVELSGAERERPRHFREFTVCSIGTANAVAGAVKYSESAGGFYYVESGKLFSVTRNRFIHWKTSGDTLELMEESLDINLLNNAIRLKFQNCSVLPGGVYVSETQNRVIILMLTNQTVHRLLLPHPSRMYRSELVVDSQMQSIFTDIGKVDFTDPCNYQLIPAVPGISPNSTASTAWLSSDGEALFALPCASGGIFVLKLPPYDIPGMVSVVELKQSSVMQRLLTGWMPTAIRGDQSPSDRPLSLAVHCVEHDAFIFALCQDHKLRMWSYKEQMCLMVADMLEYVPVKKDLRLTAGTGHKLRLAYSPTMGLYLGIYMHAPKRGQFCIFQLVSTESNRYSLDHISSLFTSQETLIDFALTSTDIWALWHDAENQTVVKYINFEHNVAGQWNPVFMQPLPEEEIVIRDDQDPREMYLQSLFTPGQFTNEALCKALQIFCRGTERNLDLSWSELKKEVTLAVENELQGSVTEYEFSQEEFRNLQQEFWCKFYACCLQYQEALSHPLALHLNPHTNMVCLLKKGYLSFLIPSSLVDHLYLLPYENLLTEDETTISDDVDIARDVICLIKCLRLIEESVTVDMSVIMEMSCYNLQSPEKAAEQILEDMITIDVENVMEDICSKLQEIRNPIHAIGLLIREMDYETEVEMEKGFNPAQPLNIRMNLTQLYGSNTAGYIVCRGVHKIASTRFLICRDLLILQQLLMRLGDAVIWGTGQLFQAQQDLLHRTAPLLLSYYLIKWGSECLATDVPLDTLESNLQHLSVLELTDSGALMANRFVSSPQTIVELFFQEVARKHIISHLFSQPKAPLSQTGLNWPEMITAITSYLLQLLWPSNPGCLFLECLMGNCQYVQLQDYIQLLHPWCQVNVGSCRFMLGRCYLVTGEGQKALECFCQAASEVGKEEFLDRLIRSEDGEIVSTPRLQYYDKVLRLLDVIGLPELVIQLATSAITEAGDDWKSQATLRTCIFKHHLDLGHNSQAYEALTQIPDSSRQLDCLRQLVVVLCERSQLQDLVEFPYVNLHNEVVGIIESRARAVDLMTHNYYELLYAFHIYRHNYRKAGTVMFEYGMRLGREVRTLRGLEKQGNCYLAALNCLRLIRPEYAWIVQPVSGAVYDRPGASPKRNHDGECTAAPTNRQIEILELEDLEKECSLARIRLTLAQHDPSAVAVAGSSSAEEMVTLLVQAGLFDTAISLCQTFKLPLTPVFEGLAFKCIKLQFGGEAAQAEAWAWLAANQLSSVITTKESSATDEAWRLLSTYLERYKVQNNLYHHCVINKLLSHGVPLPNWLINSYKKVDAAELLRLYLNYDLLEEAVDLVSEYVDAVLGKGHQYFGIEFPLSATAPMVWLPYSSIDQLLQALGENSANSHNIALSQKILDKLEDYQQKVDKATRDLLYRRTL

Variants of: B1
Settings: with nu160_human NUP160, Q12769

Variant | effect of a mutation on the interaction
A581P | disrupting interaction strength
R645W | decreasing interaction strength
A477V | decreasing interaction strength

Variants of: B1
Settings: with nu160_human NUP160, Q12769
Remark: another data set of the same source

Variant | effect of a mutation on the interaction
A477V | with no effect

Source: IntAct's records for PubMed 30179222
